From patent US20220127354A1 (Amgen, published 2022)
Positions count from the first letter of the chain named. Numbers in names are those of the source.

T1: Cyno Cadherin-19 (cynomologous monkey (Macaca …, UniProt Q9H159 44-772 (human entry)))
T1 construct: also called cynomologous monkey CDH-19
T1 chain: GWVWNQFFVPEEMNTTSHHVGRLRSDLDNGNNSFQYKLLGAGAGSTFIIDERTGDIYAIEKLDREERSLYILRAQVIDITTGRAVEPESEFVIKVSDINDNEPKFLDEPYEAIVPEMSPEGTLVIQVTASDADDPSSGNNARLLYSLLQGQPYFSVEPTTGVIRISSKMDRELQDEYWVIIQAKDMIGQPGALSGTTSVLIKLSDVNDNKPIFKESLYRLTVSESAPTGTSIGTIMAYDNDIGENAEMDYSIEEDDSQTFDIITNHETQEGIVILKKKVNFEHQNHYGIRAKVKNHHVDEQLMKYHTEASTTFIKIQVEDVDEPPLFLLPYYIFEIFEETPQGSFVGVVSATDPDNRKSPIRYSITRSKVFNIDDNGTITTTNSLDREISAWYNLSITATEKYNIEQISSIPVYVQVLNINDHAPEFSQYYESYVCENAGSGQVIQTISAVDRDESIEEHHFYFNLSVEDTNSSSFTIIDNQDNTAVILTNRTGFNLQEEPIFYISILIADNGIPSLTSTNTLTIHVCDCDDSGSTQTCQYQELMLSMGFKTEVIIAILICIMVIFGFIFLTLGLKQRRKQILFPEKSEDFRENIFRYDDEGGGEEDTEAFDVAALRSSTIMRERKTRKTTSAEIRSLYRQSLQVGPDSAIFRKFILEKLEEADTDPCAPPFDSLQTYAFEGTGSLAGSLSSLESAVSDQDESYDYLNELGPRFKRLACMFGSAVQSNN

B1: hu anti-<huCDH19> 4F7 (Ab ID 13591) (antibody, human IgG1, lambda, V domains shown)
VH: QVQLQESGPGLVKPSETLSLTCTVSGGSISSYSWSWIRQPPGKGLEWIGYIYYSGSTNYNPSLKSRVTISLDTSKNQFSLKLSSVTAADTAVYYCARNWAFHFDYWGQGTLVTVSS
VL: QSVLTQPPSVSGAPGQRVTISCTGSSSNIGTGYDVHWYQQLPGTAPKLLIHGNSNRPSGVPDRFSGSKSGTSASLAITGLQAEDEADYYCQSYDSSLSGWVFGGGTRLTVLG
notes: huIgG1z / huLLC-C1; Bin 1
B2: hu anti-<huCDH19> 20D3.1 (Ab ID 13878) (antibody, human IgG1, lambda, V domains shown)
VH: QVQLVQSGAEVKKPGASVKVSCKVSGYTFTSYFIHWVRQAPGQGLEWMGIINPISVSTSYAQKFQGRVTMTRDTSTSTVFMELSSLRSEDTAVYYCARGGIQLWLHFDYWGQGTLVTVSS
VL: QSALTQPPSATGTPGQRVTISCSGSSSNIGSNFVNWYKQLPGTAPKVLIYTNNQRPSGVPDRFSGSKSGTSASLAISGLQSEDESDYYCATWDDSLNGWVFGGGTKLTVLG
notes: huIgG1z / huLLC-C2; Bin 2; also called 16H2; 23E7
B3: hu anti-<huCDH19> 22D1.1 (Ab ID 13879) (antibody, human IgG1, lambda, V domains shown)
VH: B2 VH with K19R, F107L
VL: QSALTQPPSATGTPGQRVTISCSGSSSNIGSNFVNWYKQLPGTAPKVLIYTNNQRPSGVPDRFSGSKSGTSASLAISGLQSEDESDYYCATWDDSMNGWVFGGGTKLTVLG
notes: huIgG1z / huLLC-C2; Bin 2
B4: hu anti-<huCDH19> 19B5.1 (Ab ID 13885) (antibody, human IgG1, lambda, V domains shown)
VH: B2 VH with F107L
VL: B3 VL with A10T, S26R
notes: huIgG1z / huLLC-C2; Bin 2
B5: anti-CDH19 antibody 23A10 (Ab ID 13884) (antibody, human IgG1, lambda, V domains shown)
VH: QVQLVESGGGVVQPGRSLRLSCAASGFTFSRYGIHWVRQAPGKGLEWVAVIWYDGSNKYYADSVKGRFTISRDNSKNTLYLLMNSLRAEDSAVYYCARRAGIPGTTGYYYGMDVWGQGTTVTVSS
VL: SYELTQPPSVSVSPGQTASITCSGDRLGEKYVCWYQQKPGQSPILVIYQDNKWPSGIPERFSGSNSGNTATLTISGTQAMDEADYYCQAWDSSTVVFGGGTKLTVLG
notes: Bin 4
B6: hu anti-<huCDH19> 25G10.1 (Ab ID 13883) (antibody, human IgG1, kappa, V domains shown)
VH: QVQLQESGPGLVKPSETLSLTCTVSGGSISGYYWSWIRQPPGKGLEWIGYIYYIGSTNYNPSLKSRVTMSVDTSKNQFSLKLSSVTAADTAVYYCARDGSSGWYRWFDPWGQGTLVTVSS
VL: EIVLTQSPGTLSLSPGERATLSCRASQSVSSSYLAWYQQKPGQAPRLLIFGASSRATGIPDRFSGSGSGTDFTLTISRLEPEDFAVYHCQQYGNSPLTFGGGTKVEIKR
notes: huIgG1z / huKLC; Bin 3
B7: hu anti-<huCDH19> 16C1.1 (Ab ID 13875) (antibody, human IgG1, kappa, V domains shown)
VH: B6 VH with V71I, K81T, V85L, Y94F
VL: B6 VL with R78G
notes: huIgG1z / huKLC; Bin 3
B8: hu anti-<huCDH19> 22G10.1 (Ab ID 13877) (antibody, human IgG1, kappa, V domains shown)
VH: EVQLLESGGGLVQPGGSLRLSCAASGFTFSSYAMNWVRQAPGKGLEWVSTISGGGANTYYADSVKGRFTISSDNSKSTLYLQMNSLRAADTAVYHCAKGGMGGYYYGMDVWGQGTTVTVSS
VL: EIVMTQSPVTLSLSLGERATLSCRASQSISSNLAWFQQKPGQAPRLLIYGAFTRATGIPARVSGSGSGTEFTLTISSLQSEDFAVYYCQQYNYWPLTFGGGTKVEIKR
notes: huIgG1z / huKLC; Bin 3
B9: hu anti-<huCDH19> 25F8.1 (Ab ID 13880) (antibody, human IgG1, lambda, V domains shown)
VH: B2 VH with V24A, F33Y, I54S, S55G, V56G, S59R
VL: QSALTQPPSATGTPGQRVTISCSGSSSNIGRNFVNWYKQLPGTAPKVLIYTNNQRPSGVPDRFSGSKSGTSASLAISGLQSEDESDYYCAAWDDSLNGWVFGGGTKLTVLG
notes: huIgG1z / huLLC-C2; Bin 2
B10: hu anti-<huCDH19> 4A9 VH::huIgG1z + 4A9 (1-239)(F47L) VL::huLLC-C1 (Ab ID 14056) (antibody, V domains shown)
VH: B1 VH with S31G, S33Y, I48F, G49A, I51F, Y52S, I69L, L71V, Y105F
VL: B1 VL with D34A, H51Y, S54N, S96R, R107K
notes: Engineered variant of 4A9; the entries already carry the changes; Bin 1
B11: hu anti-<huCDH19> 4A9 (1-468)(F55I,A56G) VH::huIgG1z + 4A9 (1-239)(F47L) VL::huLLC-C1 (Ab ID 14057) (antibody, V domains shown)
VH: B1 VH with S31G, S33Y, I51F, Y52S, I69L, L71V, Y105F
VL: B1 VL with D34A, H51Y, S54N, S96R, R107K
notes: as for B10
B12: hu anti-<huCDH19> 26D1.1 (1-469)(R27G,G82R) VH::huIgG1z + 26D1.1 (1-235)(H1Q,S7P) VL::huLLC-C2 (Ab ID 14088) (antibody, V domains shown)
VH: QVQLVQSGAEVKKPGASVKVSCKASGYTFTSYYMSWVRQAPGQGLEWMGIIHPSGGDTTYAQKFQGRVTMTRDTSTSTVYMELSSLRSEDTAVYYCARGGIKLWLHFDYWGQGTLVTVSS
VL: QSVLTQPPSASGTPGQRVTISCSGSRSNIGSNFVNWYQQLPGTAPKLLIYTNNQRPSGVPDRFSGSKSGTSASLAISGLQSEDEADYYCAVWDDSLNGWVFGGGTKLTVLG
notes: Engineered variant of 26D1; the entries already carry the changes; Bin 2
B13: hu anti-<huCDH19> 25F8.1 VH::huIgG1z + 25F8.1 (1-235)(K45Q,S102A) VL::huLLC-C2 (Ab ID 14094) (antibody, V domains shown)
VH: B2 VH with V24A, F33Y, I54S, S55G, V56G, S59R
VL: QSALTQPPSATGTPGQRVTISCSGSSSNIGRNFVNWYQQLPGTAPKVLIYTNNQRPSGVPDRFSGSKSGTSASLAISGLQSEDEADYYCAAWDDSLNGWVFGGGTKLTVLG
notes: Engineered variant of 25F8; the entries already carry the changes; Bin 2
B14: hu anti-<huCDH19> 4B10 (1-471)(R17G,D61E,D72E) VH::huIgG1z + 4B10 (1-236)(H45Q,A90T) VL::huKLC (Ab ID 14055) (antibody, V domains shown)
VH: QVQLVESGGGVVQPGGSLRLSCAASGFTFSSYDMHWVRQAPGKGLEWVAVISYEGTNEYYAESVKGRFTISRDTSKNTLYLQMNSLRAEDTAVYYCARERYFDWSFDYWGQGTLVSVSS
VL: EIVLTQSPGTLSLSPGERATLSCRASQSVSNTYLAWYQQRPGQAPRLLIYGASSRATGIPDRFSGSGSGTDFTLTISSLEPEDFAVYYCQQYSNSWTFGQGTKVEIKR
notes: Engineered variant of 4B10; the entries already carry the changes; Bin 4

The binders below were run against T2, Human Cadherin-19 (human, UniProt Q9H159 44-772) (assay: FACS, endogenous CDH-19 on CHL-1 and Colo699 tumor cells).
T2 construct: also called CDH19; huCDH19
Description: FACS binding assays were performed to evaluate the binding of the anti-Cadherin-19 receptor specific antibodies to endogenous Cadherin-19 receptor expressed on the CHL-1 tumor cell lines.
FACs assays were performed by incubating hybridoma supernatants with 10,000 to 25,000 cells in PBS/2% Fetal bovine serum/2 mM Calcium Chloride at 4° C. for one hour followed by two washes with PBS/2% Fetal bovine serum/2 mM Calcium Chloride. Cells were then treated with florochrome-labeled secondary antibodies at 4° C. followed by one wash. The cells were resuspended in 50 μl of PBS/2% FBS and antibody binding was analyzed using a FACSCalibur™ instrument.

Row | binding result | Binder
1 | binds | B1
2 | binds | B2
3 | binds | B3
4 | binds | B4
5 | binds | B5
6 | binds | B6
7 | binds | B7
8 | binds | B8
9 | binds | B9

The binders below were run against T3, huCDH19(44-141)::muCDH19(140-770) with Flag tag (construct B, Hu EC1) (human/mouse chimera) (assay: flow cytometry, transfected 293T cells).
T3 construct: leader left out; the entry starts at residue 44; also called C137897
Excerpt: (§1) The experiment included assaying the anti-CDH19 antibodies against mouse Cadherin19 to determine suitability for binning on these human/mouse chimeras.

Row | binding result | Binder
10 | binds | B10
11 | binds | B11
12 | binds | B12
13 | binds | B13
14 | binds | B9

The binders below were run against T4, huCDH19(44-249)::muCDH19(248-770) with Flag tag (construct C, Hu EC1-2) (human/mouse chimera) (assay: flow cytometry, transfected 293T cells).
T4 construct: leader left out; the entry starts at residue 44; also called C137896
Excerpt: as §1

Row | binding result | Binder
15 | binds | B10
16 | binds | B11
17 | binds | B12
18 | binds | B13
19 | binds | B9

These binders were tested against huCDH19(44-772) with Flag tag (construct A, Hu EC1-5) (human, UniProt Q9H159 44-772) (assay: flow cytometry, transfected 293T cells).
Excerpt: as §1

Row | binding result | Binder
20 | binds | B10
21 | binds | B11
22 | binds | B14
23 | binds | B12
24 | binds | B13
25 | binds | B9

Target: T1, Cyno Cadherin-19
Assay: FACS, recombinant cynomologous CDH-19

Row | binding result | Binder
26 | binds | B1
27 | binds | B2
28 | binds | B3
29 | binds | B4
30 | binds | B5
31 | binds | B8
32 | binds | B9
